Test results from patent US7834164B2 (priority 2006, dated 2010).
“Also recorded” adds a separate entry of the source. Bridge positions count the residues as written; N and C are the ends. Ends that are not written are not given here. Peptide text beside a SMILES is read from it.

B1: FcLoop-L2-OsK1-L2: OsK1 inserted into human IgG1 Fc loop between Leu139 and Thr140 with Gly linkers (protein)
chain: MDKTHTCPPCPAPELLGGPSVFLFPPKPKDTLMISRTPEVTCVVVDVSHEDPEVKFNWYVDGVEVHNAKTKPREEQYNSTYRVVSVLTVLHQDWLNGKEYKCKVSNKALPAPIEKTISKAKGQPREPQVYTLPPSRDELGGGVIINVKCKISRQCLEPCKKAGMRFGKCMNGKCHCTPKGGTKNQVSLTCLVKGFYPSDIAVEWESNGQPENNYKTTPPVLDSDGSFFLYSKLTVDKSRWQQGNVFSCSVMHEALHNHYTQKSLSLSPGK
modifications: Definition of Artificial Sequence: Synthetic protein
B2: FcLoop-L2-ShK-L2: ShK inserted into human IgG1 Fc loop with Gly linkers (protein)
chain: MDKTHTCPPCPAPELLGGPSVFLFPPKPKDTLMISRTPEVTCVVVDVSHEDPEVKFNWYVDGVEVHNAKTKPREEQYNSTYRVVSVLTVLHQDWLNGKEYKCKVSNKALPAPIEKTISKAKGQPREPQVYTLPPSRDELGGRSCIDTIPKSRCTAFQCKHSMKYRLSFCRKTCGTCGGTKNQVSLTCLVKGFYPSDIAVEWESNGQPENNYKTTPPVLDSDGSFFLYSKLTVDKSRWQQGNVFSCSVMHEALHNHYTQKSLSLSPGK
modifications: Definition of Artificial Sequence: Synthetic protein
B3: PEGylated CH2-OSK1: CH2-OSK1 fusion protein mono-PEGylated with 20 kD methoxy-PEG-aldehyde (conjugate)
chain: MGGHHHHHHGGGPSVFLFPPKPKDTLMISRTPEVTCVVVDVSHEDPEVKFNWYVDGVEVHNAKTKPREEQYNSTYRVVSVLTVLHQDWLNGKEYKCKVSNKALPAPIEKTISGGGGSGGGGSGVIINVKCKISRQCLEPCKKAGMRFGKCMNGKCHCTPK

Test system: IL-2 production in human whole blood
Type: cell-based

Molecule | potency in blocking the cytokine response relative to cyclosporin A | blockade of the whole blood cytokine response (IL-2 and IFNg; in words)
CC[C@H](C)[C@@H]1NC(=O)[C@H](CCCCN)NC(=O)[C@@H](NC(=O)[C@H](CCCCN)NC(=O)[C@@H](NC(=O)[C@H](CC(N)=O)NC(=O)[C@@H](NC(=O)[C@@H](NC(=O)[C@@H](NC(=O)CN)C(C)C)[C@@H](C)CC)[C@@H](C)CC)C(C)C)CSSC[C@@H]2NC(=O)[C@H](CCCCN)NC(=O)CNC(=O)[C@H](Cc3ccccc3)NC(=O)[C@H](CCCNC(=N)N)NC(=O)[C@H](CCSC)NC(=O)CNC(=O)[C@H](C)NC(=O)[C@H](CCCCN)NC(=O)[C@H](CCCCN)NC(=O)[C@@H]3CSSC[C@@H](C(=O)N[C@H](C(=O)N4CCC[C@H]4C(=O)N[C@@H](CCCCN)C(=O)O)[C@@H](C)O)NC(=O)[C@H](Cc4c[nH]cn4)NC(=O)[C@H](CSSC[C@H](NC(=O)[C@H](CCC(N)=O)NC(=O)[C@H](CCCNC(=N)N)NC(=O)[C@H](CO)NC1=O)C(=O)N[C@@H](CC(C)C)C(=O)N[C@@H](CCC(=O)O)C(=O)N1CCC[C@H]1C(=O)N3)NC(=O)[C@H](CCCCN)NC(=O)CNC(=O)[C@H](CC(N)=O)NC(=O)[C@H](C)NC2=O [OSK1[Ala-29]] (H-GVIINVKCKISRQCLEPCKKAGMRFGKCANGKCHCTPK-OH; disulfide 8-28, 14-33, 18-35) | several orders of magnitude more potent | 
SEQ ID No: 4989: OSK1 analog without beta strand 1 (labeled des 1-7), Table 42 (CKISRQCLKPCKDAGMRFGKCMNGKCHC-NH2; ends and bridges not checked) |  | retain activity in blocking inflammation
B1 |  | potent blockade
B2 |  | potent blockade
B3 |  | active in blocking inflammation; also recorded: modest blockade
